We go through 11 variants from IntAct's records for PubMed 31515488.

To fix the notation:
B1: Ras-related protein Rab-5C (Homo sapiens), P51148 (parent)
chain: MAGRGGAARPNGPAAGNKICQFKLVLLGESAVGKSSLVLRFVKGQFHEYQESTIGAAFLTQTVCLDDTTVKFEIWDTAGQERYHSLAPMYYRGAQAAIVVYDITNTDTFARAKNWVKELQRQASPNIVIALAGNKADLASKRAVEFQEAQAYADDNSLLFMETSAKTAMNVNEIFMAIAKKLPKNEPQNATGAPGRNRGVDLQENNPASRSQCCSN
partner: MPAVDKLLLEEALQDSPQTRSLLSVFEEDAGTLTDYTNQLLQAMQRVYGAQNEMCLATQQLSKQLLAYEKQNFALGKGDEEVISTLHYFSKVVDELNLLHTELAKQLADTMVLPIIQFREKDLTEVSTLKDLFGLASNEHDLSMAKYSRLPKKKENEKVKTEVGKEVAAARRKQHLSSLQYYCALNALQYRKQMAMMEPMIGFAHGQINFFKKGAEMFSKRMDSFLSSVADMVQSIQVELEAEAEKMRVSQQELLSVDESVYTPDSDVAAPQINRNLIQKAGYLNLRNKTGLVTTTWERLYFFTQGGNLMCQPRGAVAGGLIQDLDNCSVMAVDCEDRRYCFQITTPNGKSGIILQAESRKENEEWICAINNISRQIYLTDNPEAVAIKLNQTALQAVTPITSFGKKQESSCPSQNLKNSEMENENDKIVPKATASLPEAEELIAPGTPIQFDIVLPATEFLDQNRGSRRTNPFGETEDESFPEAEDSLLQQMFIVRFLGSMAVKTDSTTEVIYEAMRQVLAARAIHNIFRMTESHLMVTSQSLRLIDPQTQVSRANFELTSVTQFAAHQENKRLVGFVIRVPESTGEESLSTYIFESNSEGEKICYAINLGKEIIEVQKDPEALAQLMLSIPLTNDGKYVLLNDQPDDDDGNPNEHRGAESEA
B2: Glutathione S-transferase Mu 5 (Homo sapiens), P46439 (parent)
chain: MPMTLGYWDIRGLAHAIRLLLEYTDSSYVEKKYTLGDAPDYDRSQWLNEKFKLGLDFPNLPYLIDGAHKITQSNAILRYIARKHNLCGETEEEKIRVDILENQVMDNHMELVRLCYDPDFEKLKPKYLEELPEKLKLYSEFLGKRPWFAGDKITFVDFLAYDVLDMKRIFEPKCLDAFLNLKDFISRFEGLKKISAYMKSSQFLRGLLFGKSATWNSK
B3: Cyclin-D1-binding protein 1 (Homo sapiens), O95273 (parent)
chain: MASATAPAAAVPTLASPLEQLRHLAEELRLLLPRVRVGEAQETTEEFNREMFWRRLNEAAVTVSREATTLTIVFSQLPLPSPQETQKFCEQVHAAIKAFIAVYYLLPKDQGITLRKLVRGATLDIVDGMAQLMEVLSVTPTQSPENNDLISYNSVWVACQQMPQIPRDNKAAALLMLTKNVDFVKDAHEEMEQAVEECDPYSGLLNDTEENNSDNHNHEDDVLGFPSNQDLYWSEDDQELIIPCLALVRASKACLKKIRMLVAENGKKDQVAQLDDIVDISDEISPSVDDLALSIYPPMCHLTVRINSAKLVSVLKKALEITKASHVTPQPEDSWIPLLINAIDHCMNRIKELTQSELEL
partner: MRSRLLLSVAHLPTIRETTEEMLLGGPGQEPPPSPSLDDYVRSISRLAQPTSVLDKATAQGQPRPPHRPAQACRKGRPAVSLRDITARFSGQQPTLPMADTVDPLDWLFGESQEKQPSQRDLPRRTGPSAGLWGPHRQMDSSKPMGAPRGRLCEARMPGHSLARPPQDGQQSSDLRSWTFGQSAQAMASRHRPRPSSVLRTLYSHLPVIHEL
B4: Zinc finger protein Aiolos (Homo sapiens), Q9UKT9 (parent)
chain: MEDIQTNAELKSTQEQSVPAESAAVLNDYSLTKSHEMENVDSGEGPANEDEDIGDDSMKVKDEYSERDENVLKSEPMGNAEEPEIPYSYSREYNEYENIKLERHVVSFDSSRPTSGKMNCDVCGLSCISFNVLMVHKRSHTGERPFQCNQCGASFTQKGNLLRHIKLHTGEKPFKCHLCNYACQRRDALTGHLRTHSVEKPYKCEFCGRSYKQRSSLEEHKERCRTFLQSTDPGDTASAEARHIKAEMGSERALVLDRLASNVAKRKSSMPQKFIGEKRHCFDVNYNSSYMYEKESELIQTRMMDQAINNAISYLGAEALRPLVQTPPAPTSEMVPVISSMYPIALTRAEMSNGAPQELEKKSIHLPEKSVPSERGLSPNNSGHDSTDTDSNHEERQNHIYQQNHMVLSRARNGMPLLKEVPRSYELLKPPPICPRDSVKVINKEGEVMDVYRCDHCRVLFLDYVMFTIHMGCHGFRDPFECNMCGYRSHDRYEFSSHIARGEHRALLK
partner: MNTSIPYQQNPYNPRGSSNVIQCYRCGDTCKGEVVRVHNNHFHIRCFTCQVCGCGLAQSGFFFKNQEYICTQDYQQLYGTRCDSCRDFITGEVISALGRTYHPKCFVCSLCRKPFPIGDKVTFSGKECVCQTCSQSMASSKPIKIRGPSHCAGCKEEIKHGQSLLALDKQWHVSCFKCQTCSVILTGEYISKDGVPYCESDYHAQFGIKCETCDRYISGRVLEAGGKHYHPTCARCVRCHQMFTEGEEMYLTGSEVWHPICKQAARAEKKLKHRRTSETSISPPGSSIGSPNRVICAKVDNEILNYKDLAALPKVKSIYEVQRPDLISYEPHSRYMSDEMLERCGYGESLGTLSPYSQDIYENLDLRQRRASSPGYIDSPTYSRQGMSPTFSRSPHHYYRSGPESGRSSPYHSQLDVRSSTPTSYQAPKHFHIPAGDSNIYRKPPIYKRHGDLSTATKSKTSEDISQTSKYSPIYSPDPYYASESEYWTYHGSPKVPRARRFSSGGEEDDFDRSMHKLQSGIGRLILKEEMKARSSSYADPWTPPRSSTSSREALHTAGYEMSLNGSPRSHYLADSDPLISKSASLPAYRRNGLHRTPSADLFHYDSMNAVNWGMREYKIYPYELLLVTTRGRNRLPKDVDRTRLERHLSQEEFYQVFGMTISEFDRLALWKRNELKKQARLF
B5: Amyloid beta A4 precursor protein-binding family B member 1-interacting protein (Homo sapiens), Q7Z5R6-2 (parent)
chain: MGESSEDIDQMFSTLLGEMDLLTQSLGVDTLPPPDPNPPRAEFNYSVGFKDLNESLNALEDQDLDALMADLVADISEAEQRTIQAQKESLQNQHHSASLQASIFSGAASLGYGTNVAATGISQYEDDLPPPPADPVLDLPLPPPPPEPLSQVSMWDQRWQDHQPLLPITDVP
B6: Grainyhead-like protein 2 homolog (Homo sapiens), Q6ISB3 (parent)
chain: MSQESDNNKRLVALVPMPSDPPFNTRRAYTSEDEAWKSYLENPLTAATKAMMSINGDEDSAAALGLLYDYYKVPRDKRLLSVSKASDSQEDQEKRNCLGTSEAQSNLSGGENRVQVLKTVPVNLSLNQDHLENSKREQYSISFPESSAIIPVSGITVVKAEDFTPVFMAPPVHYPRGDGEEQRVVIFEQTQYDVPSLATHSAYLKDDQRSTPDSTYSESFKDAATEKFRSASVGAEEYMYDQTSSGTFQYTLEATKSLRQKQGEGPMTYLNKGQFYAITLSETGDNKCFRHPISKVRSVVMVVFSEDKNRDEQLKYWKYWHSRQHTAKQRVLDIADYKESFNTIGNIEEIAYNAVSFTWDVNEEAKIFITVNCLSTDFSSQKGVKGLPLMIQIDTYSYNNRSNKPIHRAYCQIKVFCDKGAERKIRDEERKQNRKKGKGQASQTQCNSSSDGKLAAIPLQKKSDITYFKTMPDLHSQPVLFIPDVHFANLQRTGQVYYNTDDEREGGSVLVKRMFRPMEEEFGPVPSKQMKEEGTKRVLLYVRKETDDVFDALMLKSPTVKGLMEAISEKYGLPVEKIAKLYKKSKKGILVNMDDNIIEHYSNEDTFILNMESMVEGFKVTLMEI
partner: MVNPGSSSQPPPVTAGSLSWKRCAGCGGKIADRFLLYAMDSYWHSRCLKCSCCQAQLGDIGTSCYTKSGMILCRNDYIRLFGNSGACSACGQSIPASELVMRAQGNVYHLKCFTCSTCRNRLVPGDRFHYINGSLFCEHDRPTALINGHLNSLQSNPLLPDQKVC
B7: Medium-chain acyl-CoA ligase ACSF2, mitochondrial (Homo sapiens), Q96CM8 (parent)
chain: MAVYVGMLRLGRLCAGSSGVLGARAALSRSWQEARLQGVRFLSSREVDRMVSTPIGGLSYVQGCTKKHLNSKTVGQCLETTAQRVPEREALVVLHEDVRLTFAQLKEEVDKAASGLLSIGLCKGDRLGMWGPNSYAWVLMQLATAQAGIILVSVNPAYQAMELEYVLKKVGCKALVFPKQFKTQQYYNVLKQICPEVENAQPGALKSQRLPDLTTVISVDAPLPGTLLLDEVVAAGSTRQHLDQLQYNQQFLSCHDPINIQFTSGTTGSPKGATLSHYNIVNNSNILGERLKLHEKTPEQLRMILPNPLYHCLGSVAGTMMCLMYGATLILASPIFNGKKALEAISRERGTFLYGTPTMFVDILNQPDFSSYDISTMCGGVIAGSPAPPELIRAIINKINMKDLVVAYGTTENSPVTFAHFPEDTVEQKAESVGRIMPHTEARIMNMEAGTLAKLNTPGELCIRGYCVMLGYWGEPQKTEEAVDQDKWYWTGDVATMNEQGFCKIVGRSKDMIIRGGENIYPAELEDFFHTHPKVQEVQVVGVKDDRMGEEICACIRLKDGEETTVEEIKAFCKGKISHFKIPKYIVFVTNYPLTISGKIQKFKLREQMERHLNL

The variants in one experiment derive from B1. The note with it: with dp13b_human APPL2, Q8NEU8.
On to R196Q, for which the “effect of a mutation on the interaction” value is on record as “with no effect”.

On to N206S, for which the “effect of a mutation on the interaction” value is given as “with no effect”.

The variants in the next experiment derive from B1. Particulars: with dp13b_human APPL2, Q8NEU8. This is another data set of the same source.
As to G93R, the “effect of a mutation on the interaction” value is recorded as “with no effect”.

Another experiment covers variants of B2. Particulars: with amol2_human AMOTL2, Q9Y2J4.
amol2_human AMOTL2, Q9Y2J4, sequence (Q9Y2J4 whole entry): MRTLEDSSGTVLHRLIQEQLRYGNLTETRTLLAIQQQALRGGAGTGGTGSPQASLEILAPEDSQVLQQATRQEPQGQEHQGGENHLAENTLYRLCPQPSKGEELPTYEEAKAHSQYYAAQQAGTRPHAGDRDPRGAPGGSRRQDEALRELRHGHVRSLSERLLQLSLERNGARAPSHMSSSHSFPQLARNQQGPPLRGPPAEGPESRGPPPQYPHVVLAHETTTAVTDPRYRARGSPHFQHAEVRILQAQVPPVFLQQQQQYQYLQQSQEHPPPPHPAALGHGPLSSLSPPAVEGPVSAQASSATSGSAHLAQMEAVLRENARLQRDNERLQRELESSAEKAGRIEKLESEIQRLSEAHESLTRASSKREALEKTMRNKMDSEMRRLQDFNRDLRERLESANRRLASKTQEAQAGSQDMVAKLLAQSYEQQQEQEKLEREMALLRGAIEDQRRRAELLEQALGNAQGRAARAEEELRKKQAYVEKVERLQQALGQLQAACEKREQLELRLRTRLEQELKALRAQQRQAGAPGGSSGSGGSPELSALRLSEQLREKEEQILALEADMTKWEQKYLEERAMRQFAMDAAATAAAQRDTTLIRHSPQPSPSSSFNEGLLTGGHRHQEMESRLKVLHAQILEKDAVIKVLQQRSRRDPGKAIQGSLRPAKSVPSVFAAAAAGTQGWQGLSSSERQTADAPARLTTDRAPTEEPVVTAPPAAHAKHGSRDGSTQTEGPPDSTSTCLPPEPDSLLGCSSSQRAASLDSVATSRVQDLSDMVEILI
L179P: the “effect of a mutation on the interaction” value is listed as “with no effect”.

A further experiment covers variants of B3. The note with it: with depp1_human DEPP1, Q9NTK1.
Turning to I277T, the “effect of a mutation on the interaction” value is “disrupting interaction strength”.

The variants in another experiment derive from B4. Particulars: with ablm3_human ABLIM3, O94929.
Regarding N119D, the “effect of a mutation on the interaction” value is on record as “with no effect”. With A24V, the “effect of a mutation on the interaction” value is on record as “with no effect”.

In a further experiment the parent is B5. The note with it: with dpy30_human DPY30, Q9C005.
dpy30_human DPY30, Q9C005, sequence (Q9C005 whole entry): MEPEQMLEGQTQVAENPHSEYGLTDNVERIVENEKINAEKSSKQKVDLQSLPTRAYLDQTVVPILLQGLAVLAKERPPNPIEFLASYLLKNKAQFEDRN
As to D134N, the “effect of a mutation on the interaction” value was “with no effect”.

Variants of B6 are the subject of another experiment. Particulars: with lmo4_human LMO4, P61968.
With K9R, the “effect of a mutation on the interaction” value is “with no effect”.

The next experiment covers variants of B7. Particulars: with atrap_human AGTRAP.
In the case of G19W, the “effect of a mutation on the interaction” value is “disrupting interaction strength”. Regarding A34V, the “effect of a mutation on the interaction” value is recorded as “disrupting interaction strength”.

Variants of B7 are the subject of the next experiment. The note with it: with ar6p1_human ARL6IP1, Q15041.
ar6p1_human ARL6IP1, Q15041, sequence (Q15041 whole entry): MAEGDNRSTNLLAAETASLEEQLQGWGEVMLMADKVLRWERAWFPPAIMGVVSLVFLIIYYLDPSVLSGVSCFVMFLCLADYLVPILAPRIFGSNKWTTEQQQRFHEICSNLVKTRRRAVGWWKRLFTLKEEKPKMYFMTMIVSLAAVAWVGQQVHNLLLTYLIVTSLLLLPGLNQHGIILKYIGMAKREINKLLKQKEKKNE
For G19W, the “effect of a mutation on the interaction” value is “disrupting interaction strength”. For A34V, the “effect of a mutation on the interaction” value is “disrupting interaction strength”.
